Assay results: US20050064507

Columns and labels:
[1] = molecular target: T1, titin peptide PFEVVWYKDKRQLRSSKKYK (SEQ ID NO:160) (not fully specified)
T1 chain: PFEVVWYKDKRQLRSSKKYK

[2] = molecular target: T2, beta adducin peptide PSKSPSKKKKKFRTPSFLKK (SEQ ID NO:137) (not fully specified)
T2 chain: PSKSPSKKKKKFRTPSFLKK

[3] = molecular target: T3, GABRB2 peptide QKKSRLRRRASQLKI (SEQ ID NO:84) (not fully specified)
T3 chain: QKKSRLRRRASQLKI

[4] = molecular target: T4, PRKCM peptide VHYTSKDTLRKRHYWR (SEQ ID NO:91) (not fully specified)
T4 chain: VHYTSKDTLRKRHYWR

[5] = molecular target: T5, cyclophilin G peptide TEEKSKKRKKKHRKNSRKHK (SEQ ID NO:165) (not fully specified)
T5 chain: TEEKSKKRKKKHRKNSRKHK

[6] = molecular target: T6, MARCKS peptide KKKRFSFKKSFKLSGFSFKK (SEQ ID NO:111) (not fully specified)
T6 chain: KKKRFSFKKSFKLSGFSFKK

[7] = molecular target: T7, ARHGAP6 peptide DGQKRKKSLRKKLD (SEQ ID NO:92) (not fully specified)
T7 chain: DGQKRKKSLRKKLD

[8] = molecular target: T8, ERN1 peptide ISDFGLAKKLAVGRHSFSRR (SEQ ID NO:145) (not fully specified)
T8 chain: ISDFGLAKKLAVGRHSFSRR

[9] = molecular target: T9, PLD1 peptide KYKAFIRIPIPTRRHTFRRQ (SEQ ID NO:161) (not fully specified)
T9 chain: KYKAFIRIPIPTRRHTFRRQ

[10] = molecular target: T10, GABA A receptor beta 2 peptide ERHVAQKKSRLRRRASQLKI (SEQ ID NO:142) (not fully specified)
T10 chain: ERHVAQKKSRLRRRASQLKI

[11] = molecular target: T11, CHRM1 peptide RKIPKRPGSVHRTPSRQ (SEQ ID NO:83) (not fully specified)
T11 chain: RKIPKRPGSVHRTPSRQ

[12] = molecular target: T12, NCF1 peptide GAPPRRSSIRNAH (SEQ ID NO:101) (not fully specified)
T12 chain: GAPPRRSSIRNAH

[13] = molecular target: T13, MARCKS peptide KKRFSFKKSFKLSGFSFKKN (SEQ ID NO:119) (not fully specified)
T13 chain: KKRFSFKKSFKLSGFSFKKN

[14] = molecular target: T14, PRKCA peptide RFARKGSLRQKNV (SEQ ID NO:85) (not fully specified)
T14 chain: RFARKGSLRQKNV

[15] = molecular target: T15, splicing factor, arginine/serine-rich 4 peptide RSRSRSRSKSKDKRKSRKRS (SEQ ID NO:134) (not fully specified)
T15 chain: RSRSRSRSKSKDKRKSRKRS

[16] = molecular target: T16, ERN1 peptide KLAVGRHSFSRRSGV (SEQ ID NO:94) (not fully specified)
T16 chain: KLAVGRHSFSRRSGV

[17] = molecular target: T17, dag kinase zeta peptide KKKKRASFKRKSSKKG (SEQ ID NO:114) (not fully specified)
T17 chain: KKKKRASFKRKSSKKG

[18] = molecular target: T18, p164-RhoGEF peptide PRLIRRGSKKRPAR (SEQ ID NO:124) (not fully specified)
T18 chain: PRLIRRGSKKRPAR

[19] = molecular target: T19, HERG peptide TELEGGFSRQRKRKLSFRRR (SEQ ID NO:140) (not fully specified)
T19 chain: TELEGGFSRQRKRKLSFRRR

[20] = molecular target: T20, PARIS1 peptide EYLERRASRRRAV (SEQ ID NO:130) (not fully specified)
T20 chain: EYLERRASRRRAV

[21] = molecular target: T21, phospholemman peptide EEGTFRSSIRRLSTRRR (SEQ ID NO:116) (not fully specified)
T21 chain: EEGTFRSSIRRLSTRRR

[22] = molecular target: T22, nuclear RNA export factor 3 peptide VRYTPYTISPYNRKGSFRKQ (SEQ ID NO:143) (not fully specified)
T22 chain: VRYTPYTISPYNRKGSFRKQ

[23] = molecular target: T23, MLK3 peptide HVRRRRGTFKRSKLRARD (SEQ ID NO:76) (not fully specified)
T23 chain: HVRRRRGTFKRSKLRARD

[24] = molecular target: T24, SPTBN4 peptide EGGDRRASGRRK (SEQ ID NO:110) (not fully specified)
T24 chain: EGGDRRASGRRK

[25] = molecular target: T25, EBNA1BP2 peptide KRPGKKGSNKRPGKR (SEQ ID NO:112) (not fully specified)
T25 chain: KRPGKKGSNKRPGKR

[26] = molecular target: T26, PKD1 peptide RVVQSVKHTKRKSSTVMK (SEQ ID NO:149) (not fully specified)
T26 chain: RVVQSVKHTKRKSSTVMK

[27] = molecular target: T27, MCM2 peptide VQRHRSMRKTFARYLSFRRD (SEQ ID NO:129) (not fully specified)
T27 chain: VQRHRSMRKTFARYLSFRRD

[28] = molecular target: T28, LIMK-2 peptide LRRRSLRRSNSISKSPGP (SEQ ID NO:121) (not fully specified)
T28 chain: LRRRSLRRSNSISKSPGP

[29] = molecular target: T29, dag kinase iota peptide PQNSLKASNRKKKRTSFKRK (SEQ ID NO:151) (not fully specified)
T29 chain: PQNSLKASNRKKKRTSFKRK

B1: PKC-zeta (protein)
chain: MPSRTGPKMEGSGGRVRLKAHYGGDIFITSVDAATTFEELCEEVRDMCRLHQQHPLTLKWVDSEGDPCTVSSQMELEEAFRLARQCRDEGLIIHVFPSTPEQPGLPCPGEDKSIYRRGARRWRKLYRANGHLFQAKRFNRRAYCGQCSERIWGLARQGYRCINCKLLVHKRCHGLVPLTCRKHMDSVMPSQEPPVDDKNEDADLPSEETDGIAYISSSRKHDSIKDDSEDLKPVIDGMDGIKISQGLGLQDFDLIRVIGRGSYAKVLLVRLKKNDQIYAMKVVKKELVHDDEDIDWVQTEKHVFEQASSNPFLVGLHSCFQTTSRLFLVIEYVNGGDLMFHMQRQRKLPEEHARFYAAEICIALNFLHERGIIYRDLKLDNVLLDADGHIKLTDYGMCKEGLGPGDTTSTFCGTPNYIAPEILRGEEYGFSVDWWALGVLMFEMMAGRSPFDIITDNPDMNTEDYLFQVILEKPIRIPRFLSVKASHVLKGFLNKDPKERLGCRPQTGFSDIKSHAFFRSIDWDLLEKKQALPPFQPQITDDYGLDNFDTQFTSEPVQLTPDDEDAIKRIDQSEFEGFEYINPLLLSTEESV
in vitro phosphorylation, 1 uM peptide (% of best substrate) [1]: 15
in vitro phosphorylation, 10 uM peptide (% of best substrate) [1]: 57
in vitro phosphorylation, 1 uM peptide (% of best substrate) [2]: 4
in vitro phosphorylation, 10 uM peptide (% of best substrate) [2]: 5
in vitro phosphorylation (% of best substrate) [3]: 19
in vitro phosphorylation (% of best substrate) [4]: 12
in vitro phosphorylation, 1 uM peptide (% of best substrate) [5]: 1
in vitro phosphorylation, 10 uM peptide (% of best substrate) [5]: 2
in vitro phosphorylation (% of best substrate) [6]: 9
in vitro phosphorylation (% of best substrate) [7]: 2
in vitro phosphorylation, 1 uM peptide (% of best substrate) [8]: 25
in vitro phosphorylation, 10 uM peptide (% of best substrate) [8]: 61
in vitro phosphorylation, 1 uM peptide (% of best substrate) [9]: 15
in vitro phosphorylation, 10 uM peptide (% of best substrate) [9]: 9
in vitro phosphorylation, 1 uM peptide (% of best substrate) [10]: 22
in vitro phosphorylation, 10 uM peptide (% of best substrate) [10]: 37
in vitro phosphorylation (% of best substrate) [11]: 4
in vitro phosphorylation (% of best substrate) [12]: 3
in vitro phosphorylation, 1 uM peptide (% of best substrate) [13]: 20
in vitro phosphorylation, 10 uM peptide (% of best substrate) [13]: 20
in vitro phosphorylation (% of best substrate) [14]: 56
in vitro phosphorylation, 1 uM peptide (% of best substrate) [15]: 5
in vitro phosphorylation, 10 uM peptide (% of best substrate) [15]: 5
in vitro phosphorylation (% of best substrate) [16]: 10
in vitro phosphorylation, 1 uM peptide (% of best substrate) [17]: 45
in vitro phosphorylation, 10 uM peptide (% of best substrate) [17]: 51
in vitro phosphorylation, 1 uM peptide (% of best substrate) [18]: 45
in vitro phosphorylation, 10 uM peptide (% of best substrate) [18]: 32
in vitro phosphorylation, 1 uM peptide (% of best substrate) [19]: 24
in vitro phosphorylation, 10 uM peptide (% of best substrate) [19]: 49
in vitro phosphorylation, 1 uM peptide (% of best substrate) [20]: 36
in vitro phosphorylation, 10 uM peptide (% of best substrate) [20]: 39
in vitro phosphorylation, 1 uM peptide (% of best substrate) [21]: 100
in vitro phosphorylation, 10 uM peptide (% of best substrate) [21]: 100
in vitro phosphorylation, 1 uM peptide (% of best substrate) [22]: 22
in vitro phosphorylation, 10 uM peptide (% of best substrate) [22]: 79
in vitro phosphorylation (% of best substrate) [23]: 41
in vitro phosphorylation (% of best substrate) [24]: 3
in vitro phosphorylation (% of best substrate) [25]: 1
in vitro phosphorylation, 1 uM peptide (% of best substrate) [26]: 3
in vitro phosphorylation, 10 uM peptide (% of best substrate) [26]: 5
in vitro phosphorylation, 1 uM peptide (% of best substrate) [27]: 51
in vitro phosphorylation, 10 uM peptide (% of best substrate) [27]: 31
in vitro phosphorylation, 1 uM peptide (% of best substrate) [28]: 60
in vitro phosphorylation, 10 uM peptide (% of best substrate) [28]: 56
in vitro phosphorylation, 1 uM peptide (% of best substrate) [29]: 15
in vitro phosphorylation, 10 uM peptide (% of best substrate) [29]: 28
